Each block holds one molecule with its values, some of them ahead of it.
What was measured:
[1] = biological target: YFP-β3 (UniProt P54287); assay: FRET or BRET
[2] = biological target: YFP-β3 (UniProt P54287 1-484); assay: FRET or BRET
YFP-β3 (UniProt P54287 1-484), sequence (P54287 whole entry): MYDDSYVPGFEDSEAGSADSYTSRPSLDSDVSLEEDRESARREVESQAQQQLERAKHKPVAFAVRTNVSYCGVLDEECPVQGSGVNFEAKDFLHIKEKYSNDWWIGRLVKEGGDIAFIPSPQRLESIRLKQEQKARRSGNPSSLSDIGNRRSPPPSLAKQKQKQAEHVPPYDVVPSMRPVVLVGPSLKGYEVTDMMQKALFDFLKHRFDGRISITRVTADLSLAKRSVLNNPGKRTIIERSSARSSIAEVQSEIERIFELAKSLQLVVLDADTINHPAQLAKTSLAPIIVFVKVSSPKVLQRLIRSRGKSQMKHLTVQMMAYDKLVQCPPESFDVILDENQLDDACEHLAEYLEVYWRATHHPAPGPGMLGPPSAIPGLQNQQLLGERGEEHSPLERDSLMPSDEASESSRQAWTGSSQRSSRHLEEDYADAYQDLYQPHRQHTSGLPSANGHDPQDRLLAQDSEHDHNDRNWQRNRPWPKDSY

YFP-β3 (UniProt P54287), sequence (P54287 whole entry): as above

- FRET efficiency [1]: 0.123
Molecule: CFP-Rad (from UniProt P55042 1-308) (natural protein)

- fold decrease in affinity compared with CFP-Rad [1]: 8 fold
Molecule: CFP-Rad[R208A/L235A] (from UniProt P55042 1-308) (natural protein)

- fold decrease in affinity compared with WT Rem [2]: 5 fold
B1: CFP-Rem[R200A/L227A] (natural protein, UniProt O35929 1-297, looked up)
chain: MTLNTQQEAKTTLRRRASTPLPLSSRGHQPGRLCTAPSAPSQHPRLGQSVSLNPPVRKPSPAQDGWSSESSDSEGSWEALYRVVLLGDPGVGKTSLASLFAEKQDRDPHEQLGGVYERTLSVDGEDTTLVVMDTWEAEKLDESWCQESCLQAGSAYVIVYSIADRSSFESASELRIQLRRTHQANHVPIILVGNKADLAACREVSVEEGRACAVVFDCKFIETSATAQHNVTELFEGVVRQLRLRRQDNAAPETPSPRRRASLGQRARRFLARLTARSARRRALKARSKSCHNLAVL

Reference: publication PMC6255209 (Proceedings of the National Academy of Sciences of the …, 2018)
